In the supplement of paper PMC6755084:

B1: F1*; the commonest letter at each place (parent)
chain: GAGACCGCAACTGAAAAGTTGTTATCACTTGTCGTAAGACACTTTGGATGGGTTGAAGTTCTGCACGTAGAAGCAAAAGGC

Variants of: B1
Assay: fraction ligated after 30 min (ligated reads / total reads); higher = more ligase activity
Settings: with F1*sub RNA substrate (template-directed ligation), 42 °C
Method: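 Chip-synthesised pool of F1* ligase ribozyme variants (all single and double substitutions, single, double and triple deletions in the catalytic core and GAA bulge, plus designed variants) was transcribed with T7 and reacted as a pool with excess substrate F1*sub for 30 min at 42 C in 50 mM EPPS pH 8.5, 25 mM MgCl2. Ligated and unligated bands were separated by PAGE, barcoded by RT and deep sequenced; fraction ligated = ligated reads / total reads per variant, relative activity = FL / FL of wild type (0.826). Sequences are the DNA template of the ribozyme.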

Compared with T23C G34T, T23C G34C is lower in fraction ligated: 0.804 for the first, 0.774 for the second.

First: T23C G34A
Second: T23C A57T
The fraction ligated of the first is higher: 0.819 for the first, 0.794 for the second.

First: T23C A57G
Second: T23C A57C
The fraction ligated of the first is higher: 0.851 for the first, 0.81 for the second.

Compared with T23C, T23G is higher in fraction ligated: 0.846 for the first, 0.855 for the second.

First: T23A
Second: T23A T25C
The fraction ligated of the first is higher: 0.837 for the first, 0.762 for the second.

Going from T23A T25A to T23A T25G, the fraction ligated rises from 0.652 to 0.737.

Going from T23G A39C to T23G A39G, the fraction ligated rises from 0.776 to 0.867.

Compared with T23G A39T, T23A C26T is higher in fraction ligated: 0.79 for the first, 0.794 for the second.

Compared with T23A C26A, T23A C26G is lower in fraction ligated: 0.318 for the first, 0.116 for the second.

Going from T23G A27T to T23G A27G, the fraction ligated falls from 0.801 to 0.788.

Going from T23G A27C to T23C A48T, the fraction ligated falls from 0.785 to 0.0663.

Compared with T23C A48C, T23C A48G is lower in fraction ligated: 0.697 for the first, 0.696 for the second.

Going from T23A A37T to T23A A37C, the fraction ligated rises from 0.811 to 0.82.

Going from T23A A37G to T23A G46C, the fraction ligated falls from 0.84 to 0.731.

First: T23A G46T
Second: T23A G46A
The fraction ligated of the first is lower: 0.479 for the first, 0.749 for the second.

Compared with T23G A36G, T23G A36C is lower in fraction ligated: 0.885 for the first, 0.882 for the second.

First: T23G A36T
Second: T23A A57G
The fraction ligated of the first is higher: 0.841 for the first, 0.818 for the second.

First: T23A A57C
Second: T23A A57T
The fraction ligated of the first is lower: 0.805 for the first, 0.813 for the second.

Going from T23A T30G to T23A T30A, the fraction ligated falls from 0.803 to 0.797.

Going from T23A T30C to T23A T43C, the fraction ligated falls from 0.793 to 0.783.

Going from T23A T43A to T23A T43G, the fraction ligated rises from 0.803 to 0.81.

Compared with T23A A56T, T23A A56C is lower in fraction ligated: 0.754 for the first, 0.653 for the second.

First: T23A A56G
Second: T23A T45A
The fraction ligated of the first is higher: 0.686 for the first, 0.373 for the second.

First: T23A T45C
Second: T23A T45G
The fraction ligated of the first is higher: 0.222 for the first, 0.0214 for the second.

Compared with T23C A36C, T23C A36T is lower in fraction ligated: 0.828 for the first, 0.823 for the second.

Going from T23C A36G to T23C T30C, the fraction ligated falls from 0.817 to 0.789.

First: T23C T30G
Second: T23C T30A
The fraction ligated of the first is higher: 0.833 for the first, 0.802 for the second.

First: T23A G55A
Second: T23A G55C
The fraction ligated of the first is higher: 0.801 for the first, 0.292 for the second.

Compared with T23A G55T, T23G G31A is higher in fraction ligated: 0.783 for the first, 0.849 for the second.

Compared with T23G G31T, T23G G31C is lower in fraction ligated: 0.868 for the first, 0.849 for the second.

Going from T23G A41G to T23G A41T, the fraction ligated rises from 0.746 to 0.792.

Going from T23G A41C to T23A G34T, the fraction ligated rises from 0.727 to 0.812.

Going from T23A G34C to T23A G34A, the fraction ligated rises from 0.813 to 0.814.

Compared with T23C G31A, T23C G31C is higher in fraction ligated: 0.619 for the first, 0.666 for the second.

Going from T23C G31T to T23C G55A, the fraction ligated falls from 0.787 to 0.783.

Going from T23C G55C to T23C G55T, the fraction ligated rises from 0.469 to 0.786.

Compared with T23A A39C, T23A A39T is higher in fraction ligated: 0.789 for the first, 0.794 for the second.

Compared with T23A A39G, T23A A36C is higher in fraction ligated: 0.819 for the first, 0.826 for the second.

Going from T23A A36T to T23A A36G, the fraction ligated rises from 0.838 to 0.847.

First: T23C A56G
Second: T23C A56T
The fraction ligated of the first is lower: 0.698 for the first, 0.802 for the second.

First: T23C A56C
Second: T23C T49G
The fraction ligated of the first is lower: 0.518 for the first, 0.78 for the second.

Going from T23C T49A to T23C T49C, the fraction ligated falls from 0.792 to 0.715.

Compared with T23A A41T, T23A A41C is lower in fraction ligated: 0.807 for the first, 0.757 for the second.

First: T23A A41G
Second: T23C T29C
The fraction ligated of the first is lower: 0.765 for the first, 0.779 for the second.

Going from T23C T29G to T23C T29A, the fraction ligated rises from 0.766 to 0.82.

First: T23C T25G
Second: T23C T25A
The fraction ligated of the first is higher: 0.672 for the first, 0.582 for the second.

First: T23C T25C
Second: T23C A37C
The fraction ligated of the first is lower: 0.782 for the first, 0.821 for the second.

Going from T23C A37G to T23C A37T, the fraction ligated falls from 0.837 to 0.796.

Going from T23G A24T to T23G A24C, the fraction ligated falls from 0.794 to 0.773.

First: T23G A24G
Second: T23G C33T
The fraction ligated of the first is lower: 0.091 for the first, 0.893 for the second.

Going from T23G C33G to T23G C33A, the fraction ligated rises from 0.848 to 0.866.

First: T23G A37G
Second: T23G A37T
The fraction ligated of the first is higher: 0.867 for the first, 0.821 for the second.

Compared with T23G A37C, T23A A24T is lower in fraction ligated: 0.819 for the first, 0.781 for the second.

First: T23A A24C
Second: T23A A24G
The fraction ligated of the first is higher: 0.782 for the first, 0.764 for the second.

Going from T23C G38T to T23C G38C, the fraction ligated falls from 0.803 to 0.802.

First: T23C G38A
Second: T23A T35A
The fraction ligated of the first is lower: 0.815 for the first, 0.827 for the second.

Compared with T23A T35G, T23A T35C is lower in fraction ligated: 0.817 for the first, 0.811 for the second.

First: T23A G50C
Second: T23A G50A
The fraction ligated of the first is lower: 0.255 for the first, 0.477 for the second.

Compared with T23A G50T, T23A G31C is higher in fraction ligated: 0.699 for the first, 0.779 for the second.

Going from T23A G31A to T23A G31T, the fraction ligated falls from 0.816 to 0.789.

Going from T23C C40G to T23C C40A, the fraction ligated rises from 0.766 to 0.792.

Going from T23C C40T to T23G C42G, the fraction ligated rises from 0.811 to 0.829.

Going from T23G C42A to T23G C42T, the fraction ligated rises from 0.835 to 0.838.

First: T23A T44A
Second: T23A T44C
The fraction ligated of the first is higher: 0.819 for the first, 0.784 for the second.

Going from T23A T44G to T23G G34T, the fraction ligated falls from 0.801 to 0.794.

Compared with T23G G34A, T23G G34C is lower in fraction ligated: 0.802 for the first, 0.799 for the second.

First: T23A G38A
Second: T23A G38C
The fraction ligated of the first is higher: 0.809 for the first, 0.799 for the second.

First: T23A G38T
Second: T23C A41C
The fraction ligated of the first is higher: 0.795 for the first, 0.783 for the second.

First: T23C A41G
Second: T23C A41T
The fraction ligated of the first is lower: 0.784 for the first, 0.808 for the second.

Going from T23A T49G to T23A T49C, the fraction ligated falls from 0.827 to 0.731.

Compared with T23A T49A, T23C C28T is lower in fraction ligated: 0.791 for the first, 0.777 for the second.

Going from T23C C28A to T23C C28G, the fraction ligated rises from 0.73 to 0.732.

Going from T23C A24C to T23C A24T, the fraction ligated falls from 0.73 to 0.501.

Compared with T23C A24G, T23G C28T is lower in fraction ligated: 0.794 for the first, 0.782 for the second.

Compared with T23G C28G, T23G C28A is lower in fraction ligated: 0.791 for the first, 0.789 for the second.

First: T23C A39G
Second: T23C A39C
The fraction ligated of the first is higher: 0.831 for the first, 0.788 for the second.

First: T23C A39T
Second: T23C T44C
The fraction ligated of the first is higher: 0.803 for the first, 0.8 for the second.

Compared with T23C T44A, T23C T44G is lower in fraction ligated: 0.817 for the first, 0.779 for the second.

First: T23C C33A
Second: T23C C33G
The fraction ligated of the first is lower: 0.786 for the first, 0.819 for the second.

First: T23C C33T
Second: T23C G47T
The fraction ligated of the first is higher: 0.839 for the first, 0.0952 for the second.

Compared with T23C G47C, T23C G47A is higher in fraction ligated: 0.0373 for the first, 0.806 for the second.

Going from T23C T32G to T23C T32C, the fraction ligated falls from 0.827 to 0.788.

Going from T23C T32A to T23G A57G, the fraction ligated falls from 0.821 to 0.819.

In the case of T23G A57C, the fraction ligated is reported as 0.779.
